Experimental data as given in PMC8185552.

Molecular target: murine tenascin-C (murine) (UniProt Q80YX1)
Assay: negative staining transmission electron microscopy; murine TNC with CXCL12 labeled with colloidal gold; gold particles counted along the length of the TNC monomer, 500 TNC molecules

stoichiometry N: 6
Substance: murine tenascin-C, Q80YX1 23-2110
